Results reported in PMC4965137, “Temporal Shift of Circadian-Mediated Gene Expression and Carbon Fixation Contributes to Biomass Heterosis in Maize Hybrids”.

B1: ZmPRR59 promoter probe (dsDNA)
DNA 1: CTCTTTAAAAAAAAATCTTCATTTAAGG
DNA 2: CCTTAAATGAAGATTTTTTTTTAAAGAG
B2: ZmTOC1a promoter probe (dsDNA)
DNA 1: GGCGAGTTTTAGATATTTTCACCCGCTCC
DNA 2: GGAGCGGGTGAAAATATCTAAAACTCGCC
B3: GRMZM2G129513 promoter probe (dsDNA)
DNA 1: ATTAAATATAAAAATATCTAAATTCATAA
DNA 2: TTATGAATTTAGATATTTTTATATTTAAT
B4: GRMZM2G033885 promoter probe (dsDNA)
DNA 1: TCAGCACTGAAAAATATCTGAGGTTGAAA
DNA 2: TTTCAACCTCAGATATTTTTCAGTGCTGA
B5: gi1 promoter probe (dsDNA)
DNA 1: GCATCGCGGAAAAAATCTTTTTCTCGCC
DNA 2: GGCGAGAAAAAGATTTTTTCCGCGATGC

Columns and labels:
Conditions in all cases: protein: recombinant; tags: MBP (pMAL-C2); label: 32P 5' end; blunt
rZmCCA1a = rZmCCA1a (Zea mays B73, UniProt B6SPA3 129-718); experiment: EMSA; 1 pmol protein; 25 mM HEPES-KOH pH 7.5, 75 mM KCl, 2.5 mM DTT, 10% glycerol, 1.25 ng poly-dIdC; 20 fmol probe, 0.5-2 pmol protein; 10 min room temperature then 20 min on ice with probe; 5% native PAGE
Chain of rZmCCA1a (B6SPA3 entry or part of it): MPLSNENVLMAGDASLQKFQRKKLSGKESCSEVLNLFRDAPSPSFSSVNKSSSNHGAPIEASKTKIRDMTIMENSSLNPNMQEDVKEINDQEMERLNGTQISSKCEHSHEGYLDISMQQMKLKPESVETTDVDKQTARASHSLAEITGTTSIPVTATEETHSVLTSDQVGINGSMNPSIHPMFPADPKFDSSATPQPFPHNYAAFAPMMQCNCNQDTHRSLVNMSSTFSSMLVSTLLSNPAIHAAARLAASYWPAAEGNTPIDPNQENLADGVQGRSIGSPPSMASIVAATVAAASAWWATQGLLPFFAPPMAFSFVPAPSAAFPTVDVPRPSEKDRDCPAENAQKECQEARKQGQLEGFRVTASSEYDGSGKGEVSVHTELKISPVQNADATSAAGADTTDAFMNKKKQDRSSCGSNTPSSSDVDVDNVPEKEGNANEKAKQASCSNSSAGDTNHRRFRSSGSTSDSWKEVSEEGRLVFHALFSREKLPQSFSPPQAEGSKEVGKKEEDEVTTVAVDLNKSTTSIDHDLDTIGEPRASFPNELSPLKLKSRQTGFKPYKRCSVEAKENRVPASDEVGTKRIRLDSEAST

rZmCCA1b [1] = target: T1, rZmCCA1b (Zea mays B73, UniProt K7U156 1-720); experiment: EMSA; self-competed by 25-100X unlabeled DNA; 25 mM HEPES-KOH pH 7.5, 75 mM KCl, 2.5 mM DTT, 10% glycerol, 1.25 ng poly-dIdC; 20 fmol probe, 0.5-2 pmol protein; 10 min room temperature then 20 min on ice with probe; 5% native PAGE
T1 sequence (K7U156 entry or part of it): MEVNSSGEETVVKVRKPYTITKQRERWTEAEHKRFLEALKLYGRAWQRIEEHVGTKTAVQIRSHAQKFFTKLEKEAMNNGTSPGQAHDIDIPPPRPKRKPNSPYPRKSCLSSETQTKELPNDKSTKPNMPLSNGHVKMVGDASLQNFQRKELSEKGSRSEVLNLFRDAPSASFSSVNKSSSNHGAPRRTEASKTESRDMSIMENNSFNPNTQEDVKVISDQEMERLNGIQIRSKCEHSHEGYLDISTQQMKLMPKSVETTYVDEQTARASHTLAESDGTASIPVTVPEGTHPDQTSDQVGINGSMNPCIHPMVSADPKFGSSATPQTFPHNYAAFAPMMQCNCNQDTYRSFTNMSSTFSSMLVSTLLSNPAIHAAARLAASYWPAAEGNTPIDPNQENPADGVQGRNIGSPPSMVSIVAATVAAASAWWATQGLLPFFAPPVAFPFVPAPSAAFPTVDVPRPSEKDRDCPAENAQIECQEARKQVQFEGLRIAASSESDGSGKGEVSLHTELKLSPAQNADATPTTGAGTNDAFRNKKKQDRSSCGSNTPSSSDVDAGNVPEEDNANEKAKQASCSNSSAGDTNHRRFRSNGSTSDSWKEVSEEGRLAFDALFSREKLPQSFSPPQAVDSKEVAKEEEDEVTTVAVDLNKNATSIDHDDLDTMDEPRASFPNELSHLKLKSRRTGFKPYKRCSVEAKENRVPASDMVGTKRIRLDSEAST

rZmCCA1b [2] = target: T1, rZmCCA1b; experiment: EMSA; 25 mM HEPES-KOH pH 7.5, 75 mM KCl, 2.5 mM DTT, 10% glycerol, 1.25 ng poly-dIdC; 20 fmol probe, 0.5-2 pmol protein; 10 min room temperature then 20 min on ice with probe; 5% native PAGE

Binder | binding result (rZmCCA1a) | binding result (rZmCCA1b [1]) | binding result (rZmCCA1b [2])
B1 | no binding | binds | 
B2 | no binding | binds | 
B3 |  |  | binds
B4 |  |  | binds
B5 | no binding | binds | 
